Numbered stars: 1 amine (or outer) side, 2 acyl side, 3 side chain; on linkers, the order of the positions; unused ones are H or OH. Bridge positions count the residues as written; N and C are the ends. Side chains are listed from the residue outwards. Ends that are not written are not given here. * marks the point of attachment. C20 diacid = O=C(O)CCCCCCCCCCCCCCCCCCC(=O)*; γGlu = O=C(O)[C@H](CCC(=O)[*:2])N[*:1]; AEEA = NCCOCCOCC(=O)O
T1: rat calcitonin receptor (rat, UniProt P32214 25-516)
T1 construct: whole, on cells; also called rCTR; rat calcitonin (a) receptor
T1 sequence (looked up): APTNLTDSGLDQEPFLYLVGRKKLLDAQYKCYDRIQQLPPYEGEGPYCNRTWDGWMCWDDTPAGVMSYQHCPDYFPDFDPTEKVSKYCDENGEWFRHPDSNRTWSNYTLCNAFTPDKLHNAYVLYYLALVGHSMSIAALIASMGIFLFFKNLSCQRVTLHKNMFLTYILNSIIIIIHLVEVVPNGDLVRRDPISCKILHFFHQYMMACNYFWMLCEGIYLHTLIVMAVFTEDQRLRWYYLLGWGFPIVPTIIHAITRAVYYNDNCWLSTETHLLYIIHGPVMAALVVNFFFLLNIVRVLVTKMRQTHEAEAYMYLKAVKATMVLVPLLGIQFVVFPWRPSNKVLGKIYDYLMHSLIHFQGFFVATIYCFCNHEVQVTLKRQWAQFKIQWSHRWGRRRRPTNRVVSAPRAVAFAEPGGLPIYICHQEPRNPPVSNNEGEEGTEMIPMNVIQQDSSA

T2: rat amylin receptor (rat calcitonin receptor + rat RAMP 3) (rat, UniProt P32214 25-516; Q9JJ73 23-147)
T2 construct: whole, on cells; also called rAmylin-R; rat amylin 3(a) receptor
T2 sequence (looked up) 1: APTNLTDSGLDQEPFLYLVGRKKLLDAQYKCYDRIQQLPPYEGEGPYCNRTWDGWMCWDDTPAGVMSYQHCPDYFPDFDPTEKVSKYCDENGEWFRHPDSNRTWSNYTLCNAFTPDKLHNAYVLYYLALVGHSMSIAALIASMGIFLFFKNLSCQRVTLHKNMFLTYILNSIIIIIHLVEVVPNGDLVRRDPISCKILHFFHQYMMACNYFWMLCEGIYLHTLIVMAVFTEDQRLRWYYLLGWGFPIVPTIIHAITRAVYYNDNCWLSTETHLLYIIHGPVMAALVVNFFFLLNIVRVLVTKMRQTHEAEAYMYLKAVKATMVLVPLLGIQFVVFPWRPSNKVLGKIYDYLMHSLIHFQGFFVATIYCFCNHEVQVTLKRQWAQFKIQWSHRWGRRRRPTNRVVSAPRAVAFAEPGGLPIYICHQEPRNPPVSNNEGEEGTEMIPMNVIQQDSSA
T2 sequence (looked up) 2: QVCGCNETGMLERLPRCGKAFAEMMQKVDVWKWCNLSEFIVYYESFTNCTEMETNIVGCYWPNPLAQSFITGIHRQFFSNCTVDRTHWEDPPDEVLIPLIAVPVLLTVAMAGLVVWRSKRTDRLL

T3: human calcitonin receptor (human, UniProt P30988 25-474)
T3 construct: whole, on cells; Membranes prepared from a stably transfected BHK cell line (Assay VII); also called hCTR; hCT
T3 sequence (looked up): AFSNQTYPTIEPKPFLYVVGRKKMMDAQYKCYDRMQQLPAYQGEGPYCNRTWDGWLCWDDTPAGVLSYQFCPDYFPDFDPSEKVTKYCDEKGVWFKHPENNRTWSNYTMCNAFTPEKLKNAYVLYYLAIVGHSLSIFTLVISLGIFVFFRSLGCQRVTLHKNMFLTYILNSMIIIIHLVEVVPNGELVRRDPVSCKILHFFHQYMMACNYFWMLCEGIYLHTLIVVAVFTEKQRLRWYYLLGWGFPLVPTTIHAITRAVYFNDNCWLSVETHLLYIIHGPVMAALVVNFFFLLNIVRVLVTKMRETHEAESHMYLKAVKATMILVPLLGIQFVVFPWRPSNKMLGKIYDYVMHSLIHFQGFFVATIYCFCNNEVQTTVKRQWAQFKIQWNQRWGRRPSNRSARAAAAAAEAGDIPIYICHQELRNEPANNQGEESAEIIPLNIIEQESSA

T4: rat amylin receptor (rat calcitonin receptor + rat RAMP 3) (rat, UniProt P32214 25-516; Q9JJ73 23-147)
T4 construct: whole, on cells; Membranes prepared from transiently transfected BHK tk'ts 13 cells (Assay VI); also called rAmylin-R; rAmylin
T4 sequence (looked up) 1: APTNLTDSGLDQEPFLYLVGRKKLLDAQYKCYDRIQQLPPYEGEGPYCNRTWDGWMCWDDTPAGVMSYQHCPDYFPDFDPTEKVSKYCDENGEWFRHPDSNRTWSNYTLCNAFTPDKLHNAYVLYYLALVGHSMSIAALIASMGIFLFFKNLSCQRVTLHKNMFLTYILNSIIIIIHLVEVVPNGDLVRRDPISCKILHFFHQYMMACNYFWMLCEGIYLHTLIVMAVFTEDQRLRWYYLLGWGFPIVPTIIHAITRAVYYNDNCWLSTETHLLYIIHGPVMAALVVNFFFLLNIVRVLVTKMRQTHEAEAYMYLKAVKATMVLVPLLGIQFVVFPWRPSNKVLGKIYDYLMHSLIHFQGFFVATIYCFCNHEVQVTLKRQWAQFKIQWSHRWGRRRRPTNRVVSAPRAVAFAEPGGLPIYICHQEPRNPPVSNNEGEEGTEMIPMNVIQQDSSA
T4 sequence (looked up) 2: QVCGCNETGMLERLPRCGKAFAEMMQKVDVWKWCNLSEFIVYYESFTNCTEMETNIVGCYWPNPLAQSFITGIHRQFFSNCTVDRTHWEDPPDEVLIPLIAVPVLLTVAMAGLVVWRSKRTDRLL

T5: rat calcitonin receptor (rat, UniProt P32214 25-516)
T5 construct: whole, on cells; Membranes prepared from transiently transfected BHK tk'ts 13 cells (Assay VIII); also called rCTR; rCT
T5 sequence (looked up): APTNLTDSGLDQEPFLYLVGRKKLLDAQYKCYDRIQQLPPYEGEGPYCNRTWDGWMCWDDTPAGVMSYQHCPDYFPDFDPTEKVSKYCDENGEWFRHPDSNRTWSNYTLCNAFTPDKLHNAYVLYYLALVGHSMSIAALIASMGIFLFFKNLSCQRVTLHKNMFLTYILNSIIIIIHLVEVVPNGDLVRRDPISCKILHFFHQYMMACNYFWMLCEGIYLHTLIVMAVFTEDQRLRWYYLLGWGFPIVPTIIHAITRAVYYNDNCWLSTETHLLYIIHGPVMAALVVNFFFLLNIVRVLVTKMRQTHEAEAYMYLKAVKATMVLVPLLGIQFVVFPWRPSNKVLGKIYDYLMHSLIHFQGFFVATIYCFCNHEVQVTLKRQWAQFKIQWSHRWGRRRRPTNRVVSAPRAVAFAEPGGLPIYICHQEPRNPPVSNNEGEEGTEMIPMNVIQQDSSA


Tests used:
rat calcitonin receptor [1] = target: T1, rat calcitonin receptor; test: SPA competition with 125I-calcitonin, membranes of BHK cells with rat calcitonin receptor (Assay VIII)
[2] = target: T2, rat amylin receptor (rat calcitonin …); test: SPA competition with 125I-rat amylin, membranes of BHK cells with rat calcitonin receptor + rat RAMP3 (Assay VI)
[3] = target: T3, human calcitonin receptor; test: ratio of binding IC50s: human calcitonin receptor / human amylin receptor (reference)
Description: The resulting pellet was resuspended, homogenized and centrifuged (20.000 rpm, 15 min) in a buffer containing 20 mM Na-HEPES and 0.1 mM EDTA (pH 7.4, buffer 2). The resulting pellet was resuspended in buffer 2 and protein concentration was measured (BCA protein Assay, Pierce). The homogenate was kept cold during the whole procedure. The membranes were kept at −80° C. until use. The assay was performed in a 384 well Optiplate (PerkinElmer) in a total volume of 40 ul. Membranes were mixed with SPA beads. Final concentration of membranes 35 ng/μL final and SPA beads was 0.05 mg/well. Test-compounds were dissolved in DMSO and further diluted in assay buffer (50 mM Hepes, pH 7.4, 1 mM CaCl2, 5 mM MgCl₂, 0.1% OA and 0.02% Tween20). […] The final mixture was incubated with shaking at 400 rpm for 120 min at 25° C. prior to centrifugation (1500 rpm, 10 min). Samples were analyzed on TopCounter™ (Packard). The IC₅₀ was calculated using (one site binding competition analysis) GraphPad Prism5 as a measure of receptor affinity.
Membranes were prepared in the following way; the cells were rinsed with PBS and incubated with Versene for approximately 5 min before harvesting. The cells were flushed with PBS and the cell-suspension was centrifuged for 5 min at 1000 rpm. Cells were homogenized (Ultrathurrax) in a buffer containing 20 mM Na-HEPES and 10 mM EDTA (pH 7.4) and centrifuged at 20.000 rpm for 15 min. The resulting pellet was resuspended, homogenized and centrifuged (20.000 rpm, 15 min) in a buffer containing 20 mM Na-HEPES and 0.1 mM EDTA (pH 7.4, buffer 2). The resulting pellet was resuspended in buffer 2 and protein concentration was measured (BCA protein Assay, Pierce). The homogenate was kept cold during the whole procedure. The membranes were kept at −80° C. until use. Assay was performed in a 384 well Optiplate (PerkinElmer) in a total volume of 40 ul. Membranes were mixed with SPA beads.

[4] = target: T4, rat amylin receptor (rat calcitonin …); test: SPA competition vs 125I-rat amylin, membranes of BHK cells with rat calcitonin receptor + rat RAMP3 (Assay VI)
Description: The binding assay was performed using scintillation proximity assay (SPA) beads (RPNQ0001) from PerkinElmer and cell membranes from the Amylin 3(a)/CRE-luc cells (as described in Assay (II)) were used. Membranes were prepared in the following way; the cells were rinsed with PBS and incubated with Versene for approximately 5 min before harvesting. The cells were flushed with PBS and the cell-suspension was centrifuged for 5 min at 1000 rpm. Cells were homogenized (ultrathurrax) in a buffer containing 20 mM Na-HEPES and 10 mM EDTA (pH 7.4) and centrifuged at 20.000 rpm for 15 min. The resulting pellet was resuspended, homogenized and centrifuged (20.000 rpm, 15 min) in a buffer containing 20 mM Na-HEPES and 0.1 mM EDTA (pH 7.4, buffer 2). The resulting pellet was resuspended in buffer 2 and protein concentration was measured (BCA protein Assay, Pierce). The homogenate was kept cold during the whole procedure. The membranes were kept at −80° C. until use. The assay was performed in a 384 well Optiplate (PerkinElmer) in a total volume of 40 ul. Membranes were mixed with SPA beads. Final concentration of membranes 35 ng/μL final and SPA beads was 0.05 mg/well. Test-compounds were dissolved in DMSO and further diluted in assay buffer (50 mM Hepes, pH 7.4, 1 mM CaCl2, 5 mM MgCl₂, 0.1% OA and 0.02% Tween20). […] The final mixture was incubated with shaking at 400 rpm for 120 min at 25° C. prior to centrifugation (1500 rpm, 10 min). Samples were analyzed on TopCounter™ (Packard). The IC₅₀ was calculated using (one site binding competition analysis) GraphPad Prism5 as a measure of receptor affinity.
Cells were grown in DMEM with 10% FBS and 1% Pen/Strep. Approximately 48 hours after transfection, the cells were harvested and membranes were prepared.

rat calcitonin receptor [5] = target: T5, rat calcitonin receptor; test: SPA competition vs 125I-calcitonin, membranes of BHK cells with rat calcitonin receptor (Assay VIII)
rat calcitonin receptor [6] = target: T5, rat calcitonin receptor; test: ratio of binding IC50s: rat calcitonin receptor / rat amylin receptor (reference)

Binder	IC50 (rat calcitonin receptor [1])	IC50 [2]	Ratio hCT/hAmylin binding [3]	IC50 [4]	IC50 (rat calcitonin receptor [5])	Ratio rCT/rAmylin binding (rat calcitonin receptor [6])
K([γGlu-γGlu-C20 diacid])CNTATCATQRLADFLRHSSPNFGAIPSSTNVGSRTY-NH2 (disulfide 2-7; N-terminus assumed; SMILES CC[C@H](C)[C@H](NC(=O)[C@H](C)NC(=O)CNC(=O)[C@H](Cc1ccccc1)NC(=O)[C@H](CC(N)=O)NC(=O)[C@@H]1CCCN1C(=O)[C@H](CO)NC(=O)[C@H](CO)NC(=O)[C@H](Cc1c[nH]cn1)NC(=O)[C@H](CCCNC(=N)N)NC(=O)[C@H](CC(C)C)NC(=O)[C@H](Cc1ccccc1)NC(=O)[C@H](CC(=O)O)NC(=O)[C@H](C)NC(=O)[C@H](CC(C)C)NC(=O)[C@H](CCCNC(=N)N)NC(=O)[C@H](CCC(N)=O)NC(=O)[C@@H](NC(=O)[C@H](C)NC(=O)[C@@H]1CSSC[C@H](NC(=O)[C@@H](N)CCCCNC(=O)CC[C@H](NC(=O)CC[C@H](NC(=O)CCCCCCCCCCCCCCCCCCC(=O)O)C(=O)O)C(=O)O)C(=O)N[C@@H](CC(N)=O)C(=O)N[C@@H]([C@@H](C)O)C(=O)N[C@@H](C)C(=O)N[C@@H]([C@@H](C)O)C(=O)N1)[C@@H](C)O)C(=O)N1CCC[C@H]1C(=O)N[C@@H](CO)C(=O)N[C@@H](CO)C(=O)N[C@H](C(=O)N[C@@H](CC(N)=O)C(=O)N[C@H](C(=O)NCC(=O)N[C@@H](CO)C(=O)N[C@@H](CCCNC(=N)N)C(=O)N[C@H](C(=O)N[C@@H](Cc1ccc(O)cc1)C(N)=O)[C@@H](C)O)C(C)C)[C@@H](C)O, synthetic analogue of human amylin; also called compound 52)	159 nM	0.335 nM	–	–	–	–
K([AEEA-γGlu-C20 diacid])CNTATCATQRLAHFLRHSSPNFGAIPSSTNVGSNTY-NH2 (disulfide 2-7; N-terminus assumed; SMILES CC[C@H](C)[C@H](NC(=O)[C@H](C)NC(=O)CNC(=O)[C@H](Cc1ccccc1)NC(=O)[C@H](CC(N)=O)NC(=O)[C@@H]1CCCN1C(=O)[C@H](CO)NC(=O)[C@H](CO)NC(=O)[C@H](Cc1c[nH]cn1)NC(=O)[C@H](CCCNC(=N)N)NC(=O)[C@H](CC(C)C)NC(=O)[C@H](Cc1ccccc1)NC(=O)[C@H](Cc1c[nH]cn1)NC(=O)[C@H](C)NC(=O)[C@H](CC(C)C)NC(=O)[C@H](CCCNC(=N)N)NC(=O)[C@H](CCC(N)=O)NC(=O)[C@@H](NC(=O)[C@H](C)NC(=O)[C@@H]1CSSC[C@H](NC(=O)[C@@H](N)CCCCNC(=O)COCCOCCNC(=O)CC[C@H](NC(=O)CCCCCCCCCCCCCCCCCCC(=O)O)C(=O)O)C(=O)N[C@@H](CC(N)=O)C(=O)N[C@@H]([C@@H](C)O)C(=O)N[C@@H](C)C(=O)N[C@@H]([C@@H](C)O)C(=O)N1)[C@@H](C)O)C(=O)N1CCC[C@H]1C(=O)N[C@@H](CO)C(=O)N[C@@H](CO)C(=O)N[C@H](C(=O)N[C@@H](CC(N)=O)C(=O)N[C@H](C(=O)NCC(=O)N[C@@H](CO)C(=O)N[C@@H](CC(N)=O)C(=O)N[C@H](C(=O)N[C@@H](Cc1ccc(O)cc1)C(N)=O)[C@@H](C)O)C(C)C)[C@@H](C)O, Analogue of human amylin; also called compound 69)	–	–	65.3	0.45 nM	46.8 nM	104

Reference: patent publication US20140087995A1 (published 2014)
